Source: CN113388031A (SHANGHAI INSTITUTE FOR ADVANCED STUDY OF ZHEJIANG UNIV, dated 2021)

Molecular target: 新冠病毒RBD蛋白 (SARS-CoV-2 spike receptor binding domain, expressed and purified) (SARS-CoV-2, UniProt P0DTC2 319-541)

B1: 单克隆抗体35B5 (monoclonal antibody 35B5) (antibody, V domains shown, not shown: large carriers)
VH: QVQLLESGGGLVQPGRSLRLSCAASGFTFDDYAMHWVRQAPGKGLEWVSGVSWNSGTIGYADSVKGRFTISRDNAKNSLYLHMRSLRAEDTALYYCAKAVEMVRGLMGLGADPEYGMDVWGQGTTVTVSS
VL: not shown
- Kd: 2.19 pM
